Measured values published in patent publication US20050142566A1 (CHILDREN S MEDICAL CENTER, published 2005).

Molecular target: T1, CatSper1 (UniProt Q91ZR5 1-686)
T1 sequence (looked up): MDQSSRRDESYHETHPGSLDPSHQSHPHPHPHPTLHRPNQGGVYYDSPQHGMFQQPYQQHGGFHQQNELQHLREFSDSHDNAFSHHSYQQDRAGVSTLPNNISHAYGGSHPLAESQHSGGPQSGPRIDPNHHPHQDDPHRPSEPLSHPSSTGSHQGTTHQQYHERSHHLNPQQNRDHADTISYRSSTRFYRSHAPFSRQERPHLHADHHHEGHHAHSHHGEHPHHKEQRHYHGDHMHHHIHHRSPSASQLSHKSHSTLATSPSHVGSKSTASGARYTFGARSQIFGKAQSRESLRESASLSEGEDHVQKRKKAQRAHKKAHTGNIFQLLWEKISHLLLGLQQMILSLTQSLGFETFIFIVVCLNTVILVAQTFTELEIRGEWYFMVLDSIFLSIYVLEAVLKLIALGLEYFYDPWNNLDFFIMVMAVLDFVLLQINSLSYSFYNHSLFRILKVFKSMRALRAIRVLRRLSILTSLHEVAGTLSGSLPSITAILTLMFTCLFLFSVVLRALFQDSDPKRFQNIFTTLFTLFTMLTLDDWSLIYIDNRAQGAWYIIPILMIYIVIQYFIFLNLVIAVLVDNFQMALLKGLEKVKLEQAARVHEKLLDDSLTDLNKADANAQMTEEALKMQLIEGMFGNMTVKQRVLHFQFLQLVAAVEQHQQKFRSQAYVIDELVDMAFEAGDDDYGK
Assay: co-immunoprecipitation from testis detergent extracts, immunoblot with CatSper1 antibody
Method: For immunoprecipitation, samples were extracted with TBS (20 mM Tris-HCl, 150 mM NaCl, pH 7.4) containing either 1% TX-100 or 1% Zwittergent 3-14 for at least 4 hours at 4° C. The extract was centrifuged at 100,000 ×g for 30 min, and the resultant supernatant solution was incubated for 2 hours with preimmune IgG covalently bound to Protein A agarose (Seize X™, Pierce Chemical Co., Rockford, Ill.). The nonbound fraction was recovered and incubated with peptide reactive antibody (±1.5 μM peptide preincubation)/Protein A agarose overnight with rocking at 4° C. The resulting immune complexes were washed 5 times. SDS-polyacrylamide electrophoresis was according to Laemmli (1970), Nature 227:680-5. Electrophoretically separated samples were transferred to nitrocellulose membranes according to Towbin et al. (1979), Proc. Natl. Acad. Sci. USA 76:4350-4, at 50V for 2 hours, 4° C. Immnunoblots were probed in TBST/2:5% nonfat milk with CatSper2 antibody (1:5000) or CatSper1 (1:2000) antibody. After incubation with, the primary antibody, the blots were rinsed once with TBST/2.5% nonfat milk and washed with TBST (4 changes over 30 min). Blots were then incubated with secondary goat anti-rabbit IgG-HRP conjugate for 1 hour, washed with TBST (3 changes over 30 min), rinsed with TBS (3 times), and the signal detected with chemiluminescence (Pierce Chemical Co., Rockford, Ill.). […]

B1: murine CatSper2 protein (SEQ ID NO: 6) (other)
chain: MAQEQGHFQLLRADAIRSKLIDTFSLIEHLQGLSQAVPRHTLREILDPAYQQKLMSGDQEQLVRFSIKPRRMGHITHSRRLLSRLRVRCSRMPPLSLWAGWVLDSSVFSKFIISLIFLNTFVLMVEIELMESTNTALWPVKLALEVADWFILLSFIVEILLMWLASFSLFWKDAWNVFDFFVTLLSLLPELVVLLGVPAHSVWLQLLRVCRVLRSLKLFARFRQIKVILLALVRALKSMTFLLMLLLIFFYIFAVTGVYFFREYSRSTIEGLEYNMFFSDLLNSLVTVFILFTLDHWYAVLQNIWKVPESSRVFSSIYVILWLLLGSIIFRNIIIAMMVTNFQNIRSELSEEMSHLEVQYKADMFKQQIIQRRQHSESLRGTSLGKVSEDIIETSDASDDDDDDDDDDDDDDDDDDDKSDATESDGEESDSENSESENSESEKIDPEKDYAKKSYPEKSHPEKSYPEKSHPEKSYPEKSHPEKSYDEQAEAEKVKEESKEKAYPVSHSISSHGSIAADTAFLENLDWETLVHENLPGLMDMDQDDRIVWPRDSLFRYFELLEKLQYNLEERKKLQEFAVQALMSFEDK
notes: also called mouse CatSper2; 68,000 Mr protein
B1: no binding.
